Experimental findings from the RNAGym collection of RNA variant scans (doi:10.7554/elife.90254) are described below.

B1: OR4K15 (parent)
chain: GUUAACGGUCAUAGGCCAUGGAAACUAGGAGCACCAUUUCGCUGCCAGUGAAGAAAUGAACAAAGAAAAUCUGGGCCAGGCAGGCAUCAAAAGAAAUAGUCUUGCGCUCAACCAGAAAGUCUGUAAUCAUUUUAAGGGUA

Variants of B1 are the subject of the data set. The experiment in a line: self-cleavage, relative activity (ratio to wild type); higher = more cleavage; in vitro, sequencing; the parent is a self-cleaving ribozyme.
Turning to U124A U127C, the self-cleavage is 0.65.
With A126U A135G, the self-cleavage stood at 1.24.
A129G G137C: the self-cleavage is 1.54.
For U130C A134G the value was 0.27; for U130C A140G, 1; for A126G A129G, 0.97.
The result for A126C U130C reads 0.47.
For A129U A134U the value was 1.18; for A125U A134G, 1.48; for U130A U132C, 1.42.
Regarding C121U U127C, the self-cleavage amounted to 1.46.
Regarding A125G A140G, the self-cleavage stood at 0.69.
The result for C128A A134G reads 1.63; that for A126G U127A, 1.77; that for A126G U127C, 0.83.
In the case of A129U U131C, the self-cleavage was 0.96.
For U122C A135G the value was 1.24.
For U122C A135U the value was 1.06.
For U131A G137U the value was 0.48.
Consider U139C, for which the self-cleavage worked out at 1.04.
In the case of U139A, the self-cleavage is 0.59.
The result for U139G reads 1.1.
For U120G U139A the value was 1.61; for G123U U130C, 0.44; for A134G G137U, 0.44.
For U122A U133C the value was 2.07; for U122A U133A, 1.43; for U127C U139C, 0.89.
In the case of A129G U131C, the self-cleavage amounted to 1.38.
For U122C G138U the value was 1.37; for U122C G123A, 1.6.
The result for U124A U133G reads 0.43; that for C121A G137A, 1.87; that for U124C U131C, 0.8.
Take A126G A134G: the self-cleavage was 1.17.
The result for U133C A140G reads 1.34; that for U133C A140U, 2.09.
On to A125G U127C, for which the self-cleavage came to 0.27.
For the variant A125G U127A, the self-cleavage was determined as 1.11.
Take U122C U139A: the self-cleavage was found to be 1.1.
The result for U127C U132A reads 0.62.
Consider A129U A135U, for which the self-cleavage stood at 0.42.
With U122C U133C, the self-cleavage stood at 2.05.
For the variant U122C U133A, the self-cleavage worked out at 0.52.
The result for A126C U132G reads 0.89; that for U124G A125G, 0.6; that for U124G A125U, 1.25.
For U127C U133A the value was 1.7.
For U122A A129G the value was 1.38.
On to U124C A126G, for which the self-cleavage was 0.48.
For U130G A135G the value was 1.08; for U122C U132A, 0.43.
The result for U122C U132C reads 0.49; that for U122A A135G, 2.11.
The result for U132C G138U reads 1.54; that for U124C U127C, 0.84; that for U127G A129G, 0.97.
As for A125G A135U, the self-cleavage was found to be 0.54.
The result for U131C A134G reads 0.73; that for U131C A135U, 0.87; that for U131C A135G, 1.55.
The result for U131C A135C reads 1.02; that for A129U U132C, 1.12.
For U131C A140U, the self-cleavage is 1.59.
The result for U131C A140G reads 0.47; that for U127C U130A, 0.35; that for U127C A140U, 1.33.
In the case of U127C A135G, the self-cleavage turned out to be 0.83.
For A126G U132C the value was 1.07; for U139C A140C, 1.42; for U122A A125U, 2.05.
With U132C U139A, the self-cleavage was 0.99.
Regarding U122G, the self-cleavage was 2.57.
The result for U122A reads 1.21; that for U122C, 0.93.
As for G123A A135G, the self-cleavage came out at 2.16.
For U122C C128A the value was 0.38.
For A129G U139A the value was 0.81; for A129G U139C, 0.85.
The result for A126U U131C reads 1.84; that for U131C G137A, 0.07; that for U131C G137U, 1.54.
U130C A135U: the self-cleavage was determined as 0.65.
For A125U A140G the value was 1.42; for U132C A134G, 1.05; for U130C U131C, 1.01.
The result for U130C U131A reads 0.25.
The result for G123A A126G reads 1.34.
For U122C A126U, the self-cleavage was determined as 1.12.
On to G136A A140U, for which the self-cleavage amounted to 2.39.
For the variant A129G A140U, the self-cleavage stood at 2.17.
The result for A126U U127C reads 0.5; that for U133A G136U, 0.91.
For U122C A129U the value was 0.49; for A125U U131C, 2.47; for U122C U127C, 0.25.
The result for A134G A135G reads 1.25; that for A129G A134G, 1.15.
As to A129G A134U, the self-cleavage was determined as 1.02.
For U122G A129U the value was 1.75; for U122C U124C, 0.67; for A129U, 0.65.
The result for A129G reads 0.93; that for A129C, 0.97.
For U124C U132C the value was 1.13.
For the variant A125U A126G, the self-cleavage came to 1.04.
The result for A125C A126G reads 0.12; that for U132C A135G, 1.53; that for A126G U139A, 0.
Regarding A126G A135C, the self-cleavage was determined as 0.84.
For C128A U139C the value was 1.05; for A129C U130C, 0.63.
For U127G the value was 1.32.
For U127A the value was 1.6.
On to U127C, for which the self-cleavage stood at 0.68.
The result for U127A A140U reads 1.25; that for U124C A125G, 1.32.
The result for A134U U139A reads 1.59.
For A134G A140G the value was 0.28; for U124A U139C, 1.26.
In the case of A129C U132C, the self-cleavage was determined as 0.98.
For U130C U133C the value was 1.54.
The result for U124C A140G reads 0.57; that for U133G, 0.38.
The result for U133C reads 1.29; that for U133A, 1.32.
For the variant G137C A140U, the self-cleavage was 1.65.
For U130C G136U the value was 1.19.
For G136A the value was 1.34.
For G136C the value was 1.29; for G136U, 1.07; for U122C A140U, 1.13.
In the case of U122C A140G, the self-cleavage was 1.32.
The result for U127C A129C reads 0.21.
For A126G U131G the value was 1.23; for A129C U133A, 1.68.
As to A125G U132C, the self-cleavage came to 0.52.
Turning to A125G U132A, the self-cleavage came to 0.32.
For C121A U132A the value was 1.42.
For the variant U130A U139C, the self-cleavage is 0.78.
In the case of U127C A134U, the self-cleavage is 1.36.
For A125G A129U the value was 0.01; for A135U G137U, 1.68.
As for U122A U132C, the self-cleavage turned out to be 2.13.
The result for U122C U131C reads 1.13; that for U122C U131A, 1.25.
For U122C U131G, the self-cleavage came out at 0.88.
For U120G U130A the value was 1.2; for A125U U127C, 1.28; for A126U U132C, 1.21.
For U130A U131C the value was 1.75.
The result for U120G reads 1.31; that for A129G A135G, 1.08.
As to A129G A135U, the self-cleavage is 1.54.
For A140G the value was 1.15.
The result for A140U reads 1.12; that for A140C, 1.4; that for U124A U132C, 0.13.
As for A129G U133C, the self-cleavage was 1.42.
For U127A U130A the value was 1.95; for U124C U130C, 0.57; for U124C U130G, 0.87.
For A126U U139A the value was 1.99; for U131C U132A, 0.94.
For U131C U132C the value was 1.1.
A125G A126G: the self-cleavage stood at 0.68.
As to U133C A135U, the self-cleavage was 1.71.
For U122C A125C the value was 0.72; for U122C A125G, 0.38; for U127C U131C, 0.51.
For U127A U131C the value was 2.45; for U122C A134U, 1.75.
Take U124C A135G: the self-cleavage stood at 1.33.
As for U124C A135C, the self-cleavage turned out to be 0.06.
